The values below come from patent publication US20230235070A1 (Pfizer, published 2023).

In this assay the target is T1, TNF-like ligand 1A (TL1A) (human, UniProt O95150 72-251).
T1 construct: Endogenous protein measured in patients' serum and biopsies by immunoprecipitation LC-MS/MS; also called TNFSF15; soluble TL1A
T1 sequence (looked up): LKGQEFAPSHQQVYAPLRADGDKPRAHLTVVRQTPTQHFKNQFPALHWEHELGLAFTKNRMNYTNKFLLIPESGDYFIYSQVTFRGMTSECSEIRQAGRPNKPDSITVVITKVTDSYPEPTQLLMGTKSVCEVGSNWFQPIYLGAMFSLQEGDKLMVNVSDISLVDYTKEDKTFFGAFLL
The assay is described as follows: total soluble TL1A in serum of treated participants, immunoprecipitation LC-MS/MS (in vivo target engagement). On the procedure:
An Immunoprecipitation LC-MS/MS assay has been developed and validated to measure total soluble TL1A in human serum. Total soluble TL1A is isolated from human serum using immuno-enrichment technology. The samples are incubated and shaken with a biotinylated anti-TL1A capture reagent at 4° C. overnight. Dynabeads MyOne C1 streptavidin-coupled magnetic beads are then added to each sample and incubated at room temperature for 1 h to extract TL1A bound to biotinylated capture antibody. The beads are then washed three times, followed by elution of total TL1A from the beads under acidic conditions. After addition of the extended sequence stable isotope labeled peptide (internal standard) to each sample, trypsin digestion is performed at 37° C. overnight. All sample processing is performed in a 96-well format on an automated liquid handling robot (Microlab STAR, Hamilton, Bonaduz, Switzerland). A 120 μL of the sample extract is injected onto a three-dimensional Dionex Ultimate 3000 nano-LC system, comprising a conventional flow immunoaffinity capture with custom 2.1 mm ID anti-peptide antibody column, and elution to 300 μm ID C18 trap column and 75 μm ID nano LC analytical column. […] One selected reaction monitoring transition for the signature peptide is used to quantify TL1A in the positive ion mode, and all data are normalized to the internal standard response. […]

B1: PF-06480605 (antibody, human IgG1, kappa, V domains shown)
VH: QVQLVQSGAEVKKPGASVKVSCKASGYDFTYYGISWVRQAPGQGLEWMGWISTYNGNTHYARMLQGRVTMTTDTSTRTAYMELRSLRSDDTAVYYCARENYYGSGAYRGGMDVWGQGTTVTVSS
VL: EIVLTQSPATLSLSPGERATLSCRASQSVSSYLAWYQQKPGQAPRLLIYDASNRATGIPARFSGSGSGTDFTLTISSLEPEDFAVYYCQQRSNWPWTFGQGTKVEIKR
notes: The embodiments and claims number differently (1 = VH, 2 = VL, 9 = HC, 10 = LC); also called anti-TL1A
In the case of B1, the binding result was “binds”.
